From article PMC4072508, “Genome-Wide Prediction and Validation of Peptides That Bind Human Prosurvival Bcl-2 Proteins” (PLoS Computational Biology, 2014)

T1: Bfl-1, Q16548
T1 chain: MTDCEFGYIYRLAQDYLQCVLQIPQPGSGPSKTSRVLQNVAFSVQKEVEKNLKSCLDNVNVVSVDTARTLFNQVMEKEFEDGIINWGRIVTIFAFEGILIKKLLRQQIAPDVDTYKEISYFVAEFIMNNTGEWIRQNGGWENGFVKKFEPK

T2: Mcl-1, Q07820
T2 chain: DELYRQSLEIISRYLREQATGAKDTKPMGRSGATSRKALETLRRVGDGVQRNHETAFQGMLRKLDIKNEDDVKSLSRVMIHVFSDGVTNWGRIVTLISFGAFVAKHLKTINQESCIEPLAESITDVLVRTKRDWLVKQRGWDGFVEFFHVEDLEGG


Target: Bcl-xL, Q07817
Test: peptide SPOT array, c-Myc-tagged receptor at 1 uM or 100 nM, anti-c-Myc-Cy3

Chain of Bcl-xL, Q07817 (Q07817 1-209): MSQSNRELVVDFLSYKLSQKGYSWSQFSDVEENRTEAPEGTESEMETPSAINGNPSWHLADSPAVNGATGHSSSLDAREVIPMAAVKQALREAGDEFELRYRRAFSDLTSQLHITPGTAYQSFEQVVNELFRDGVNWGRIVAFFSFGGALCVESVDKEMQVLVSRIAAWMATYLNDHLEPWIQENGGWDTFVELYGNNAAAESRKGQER

| Binder | SPOT signal as a fraction of Bim BH3's signal on the same receptor and array |
| --- | --- |
| WLKGDILGEKLVNLADCLCNEDLESR [RNF160] | 0.07 |
| HHSSQEMSSEYREYLDSFGKCPGGRN [PCYT2] | 0.05 |
| VDSIRPKCQEDRHLCDQFSAEIARRR [MCF2L] | 0.25 |
| ADVHGIWSRLFCDFGDEFEVLDTTGE [UBA6] | 0.07 |
| MRSQLGKATALAIMLDKLWWADQVSE [LRP1] | 0.12 |
| TGSLCEIATTDSFEGDGFLWVKSGSV [CRB1] | 0.06 |
| QEQEQHVPFDIHTYGDQLVSRFPQLN [NCAPH2] | 0.06 |
| APEEDFFSIHIRIVLDWTEGLFNACG [CYBB] | 0.06 |
| SFLSAHCASHDAWFGDSLTSLSQRLQ [TMEM214] | 0.07 |
| VLLTLLVAAVDRCQGQDVQEAGSCVQ [COL2A1] | 0.05 |
| KIETTPESRYLAQILDSVSLTCSTTG [VCAM1] | 0.07 |
| QCPIFRLGDIDRETGDNFSDVAIQGG | 0.05 |
| SGLPGLSSVDINNFGDSINESEGIPL [MKI67] | 0.08 |
| RAKASSLSEELKHFADGLETDGTLQK [DSN1] | 0.07 |
| DSLLWKLAGLLRESLDVVLSGCSTLS [STK11IP] | 0.06 |
| LFWTPLLVVLDAGLGDTEAQQTTLHP [SGCA] | 0.06 |

| Binder | SPOT signal as a fraction of Bim BH3's signal on the same receptor and array |
| --- | --- |
| LALLAQPSHLDRQVARSVFGHICSHL [MYBBP1A] | 0.68 |
| KLALEQRCRELRARGRRLEETLPRRI [KIF19] | 1.22 |
| YFKLFRASGDMRTNLDNYLYEIQLSS [IGF2R] | 0.28 |
| WVKSIRICTPMGKLLDSCHPLTRKVP [PROK2] | 1.23 |
| NGGLLEFHKSLQEILDKNDHWFDIDP [DZIP3] | 0.12 |
| FKAWGKFGGAFCRYLDEMKEIQERQR [PURB] | 1.19 |
| CHGLRELALNDHLLSDELLLALSSEK [FBXL3] | 0.06 |
| GVMTQEVGQLLQDMLDDVYQQYRSLT [HUWE1] | 0.03 |
| SMRRNAMGVGLVFELDLFTTRHISHW [DNAH10] | 0.21 |
| QASREAGAAADRNVAQRLFENYQTQS [CCDC68] | 0.05 |
| SSTMGQVGRQLAIILDDINRRYDSEF [BAK1] | 0.02 |
| QCPIFRLGDIFRETGDNFSDVAIQGG | 0.07 |
| AEVMRQRGINMRYLLKVLELVLRSPA [KIAA0664] | 0.74 |
| AFGLGDLPNLLGLVLDQLGDTERKRR [ADAMTS14] | 0.07 |
| RMIVDCVSSHLKKTLDGAKTFIIFLC [BBS10] | 0.61 |
| QAGPVSSGLALRKLGDRVQLLNLLVT [CCDC57] | 1.06 |

Target: T1, Bfl-1, Q16548
Test: as above

| Binder | SPOT signal as a fraction of Bim BH3's signal on the same receptor and array |
| --- | --- |
| WLKGDILGEKLVNLADCLCNEDLESR [RNF160] | 0.06 |
| HHSSQEMSSEYREYLDSFGKCPGGRN [PCYT2] | 0.03 |
| VDSIRPKCQEDRHLCDQFSAEIARRR [MCF2L] | 0.1 |
| ADVHGIWSRLFCDFGDEFEVLDTTGE [UBA6] | 0.04 |
| MRSQLGKATALAIMLDKLWWADQVSE [LRP1] | 0.09 |
| TGSLCEIATTDSFEGDGFLWVKSGSV [CRB1] | 0.03 |
| QEQEQHVPFDIHTYGDQLVSRFPQLN [NCAPH2] | 0.05 |
| APEEDFFSIHIRIVLDWTEGLFNACG [CYBB] | 0.04 |
| SFLSAHCASHDAWFGDSLTSLSQRLQ [TMEM214] | 0.06 |
| VLLTLLVAAVDRCQGQDVQEAGSCVQ [COL2A1] | 0.03 |
| KIETTPESRYLAQILDSVSLTCSTTG [VCAM1] | 0.04 |
| QCPIFRLGDIDRETGDNFSDVAIQGG | 0.03 |
| SGLPGLSSVDINNFGDSINESEGIPL [MKI67] | 0.04 |
| RAKASSLSEELKHFADGLETDGTLQK [DSN1] | 0.04 |
| DSLLWKLAGLLRESLDVVLSGCSTLS [STK11IP] | 0.04 |
| LFWTPLLVVLDAGLGDTEAQQTTLHP [SGCA] | 0.05 |

| Binder | SPOT signal as a fraction of Bim BH3's signal on the same receptor and array |
| --- | --- |
| LALLAQPSHLDRQVARSVFGHICSHL [MYBBP1A] | 0.38 |
| KLALEQRCRELRARGRRLEETLPRRI [KIF19] | 0.62 |
| YFKLFRASGDMRTNLDNYLYEIQLSS [IGF2R] | 0.37 |
| WVKSIRICTPMGKLLDSCHPLTRKVP [PROK2] | 0.53 |
| NGGLLEFHKSLQEILDKNDHWFDIDP [DZIP3] | 0.05 |
| FKAWGKFGGAFCRYLDEMKEIQERQR [PURB] | 1.19 |
| CHGLRELALNDHLLSDELLLALSSEK [FBXL3] | 0.04 |
| GVMTQEVGQLLQDMLDDVYQQYRSLT [HUWE1] | 0.01 |
| SMRRNAMGVGLVFELDLFTTRHISHW [DNAH10] | 0.17 |
| QASREAGAAADRNVAQRLFENYQTQS [CCDC68] | 0.04 |
| SSTMGQVGRQLAIILDDINRRYDSEF [BAK1] | 0.01 |
| QCPIFRLGDIFRETGDNFSDVAIQGG | 0.04 |
| AEVMRQRGINMRYLLKVLELVLRSPA [KIAA0664] | 0.49 |
| AFGLGDLPNLLGLVLDQLGDTERKRR [ADAMTS14] | 0.05 |
| RMIVDCVSSHLKKTLDGAKTFIIFLC [BBS10] | 0.24 |
| QAGPVSSGLALRKLGDRVQLLNLLVT [CCDC57] | 0.39 |

Target: T2, Mcl-1, Q07820
Test: as above

| Binder | SPOT signal as a fraction of Bim BH3's signal on the same receptor and array |
| --- | --- |
| WLKGDILGEKLVNLADCLCNEDLESR [RNF160] | 0.05 |
| HHSSQEMSSEYREYLDSFGKCPGGRN [PCYT2] | 0.04 |
| VDSIRPKCQEDRHLCDQFSAEIARRR [MCF2L] | 0.08 |
| ADVHGIWSRLFCDFGDEFEVLDTTGE [UBA6] | 0.04 |
| MRSQLGKATALAIMLDKLWWADQVSE [LRP1] | 0.18 |
| TGSLCEIATTDSFEGDGFLWVKSGSV [CRB1] | 0.04 |
| QEQEQHVPFDIHTYGDQLVSRFPQLN [NCAPH2] | 0.04 |
| APEEDFFSIHIRIVLDWTEGLFNACG [CYBB] | 0.04 |
| SFLSAHCASHDAWFGDSLTSLSQRLQ [TMEM214] | 0.05 |
| VLLTLLVAAVDRCQGQDVQEAGSCVQ [COL2A1] | 0.05 |
| KIETTPESRYLAQILDSVSLTCSTTG [VCAM1] | 0.04 |
| QCPIFRLGDIDRETGDNFSDVAIQGG | 0.04 |
| SGLPGLSSVDINNFGDSINESEGIPL [MKI67] | 0.04 |
| RAKASSLSEELKHFADGLETDGTLQK [DSN1] | 0.05 |
| DSLLWKLAGLLRESLDVVLSGCSTLS [STK11IP] | 0.05 |
| LFWTPLLVVLDAGLGDTEAQQTTLHP [SGCA] | 0.04 |

| Binder | SPOT signal as a fraction of Bim BH3's signal on the same receptor and array |
| --- | --- |
| LALLAQPSHLDRQVARSVFGHICSHL [MYBBP1A] | 0.63 |
| KLALEQRCRELRARGRRLEETLPRRI [KIF19] | 0.58 |
| YFKLFRASGDMRTNLDNYLYEIQLSS [IGF2R] | 0.39 |
| WVKSIRICTPMGKLLDSCHPLTRKVP [PROK2] | 0.56 |
| NGGLLEFHKSLQEILDKNDHWFDIDP [DZIP3] | 0.06 |
| FKAWGKFGGAFCRYLDEMKEIQERQR [PURB] | 1.07 |
| CHGLRELALNDHLLSDELLLALSSEK [FBXL3] | 0.04 |
| GVMTQEVGQLLQDMLDDVYQQYRSLT [HUWE1] | 0.02 |
| SMRRNAMGVGLVFELDLFTTRHISHW [DNAH10] | 0.18 |
| QASREAGAAADRNVAQRLFENYQTQS [CCDC68] | 0.04 |
| SSTMGQVGRQLAIILDDINRRYDSEF [BAK1] | 0.01 |
| QCPIFRLGDIFRETGDNFSDVAIQGG | 0.05 |
| AEVMRQRGINMRYLLKVLELVLRSPA [KIAA0664] | 0.71 |
| AFGLGDLPNLLGLVLDQLGDTERKRR [ADAMTS14] | 0.06 |
| RMIVDCVSSHLKKTLDGAKTFIIFLC [BBS10] | 0.21 |
| QAGPVSSGLALRKLGDRVQLLNLLVT [CCDC57] | 0.57 |
